Results: patent publication US20240182575A1 (Ablynx, published 2024)
Values belong to the binder of their own block, whether it stands above or below them.

Key:
[1] = target: T1, HuCD28-HuIgG1 (fusion protein of the extracellular part of human CD28 and human Fc gamma 1, R&D Systems Cat … (human, UniProt P10747 19-152; P01857 100-330 = IgG part); assay: competition ELISA, CD28-hFc in solution; blocked ligand coated B7-1-muFc
T1 construct: extracellular domain;domain: Fc; bought; also called CD28-Ig; hCD28-Fc

[2] = target: T2, human CD28 on Jurkat cells (human, UniProt P10747 19-220); assay: FACS, Jurkat cells
T2 construct: whole, on cells; also called native form of the CD28 antigen; cell expressed CD28
Protocol: Binding of putative CD28 reactive Nanobodies clones was detected using unlabeled anti-c-myc tag mouse monoclonal antibody 9E10, followed by a phycoerythrin conjugated F(ab′)2 derived from goat-anti-mouse IgG (human and bovine crossabsorbed), and read on a BD FACSarray instrument. Dead cells were excluded from the analysis by gating out TOPRO3 vital dye positive scoring cells. Binding of the Nanobodies to cells was evaluated in BD FACSarray control software as PE channel histograms.

[3] = target: T2, human CD28 on Jurkat cells; assay: FACS competition, Jurkat cells; blocked ligand CD86-Fc
Excerpt: (§1) The potency of cell-expressed CD28 binding Nanobodies to inhibit the interaction of CD28 with either CD80 or CD86 was also ranked using FACS based screening method. […] Dead cells were stained by including TOPRO3 vital dye in the final resuspension buffer. All samples were read on a BD FACSarray instrument. Dead cells were excluded from the analysis by gating out TOPRO3 vital dye positive scoring cells.

[4] = target: T2, human CD28 on Jurkat cells; assay: FACS competition, Jurkat cells; blocked ligand CD80-Fc
Excerpt: as §1

[5] = target: T3, HuCTLA4-HuIgG1 (fusion protein of the extracellular part of human CD152 and human Fc gamma 1, CTLA4-Ig) (human, UniProt P16410 36-161); assay: competition ELISA, CTLA4-hFc in solution; blocked ligand coated B7-2-muFc
T3 construct: extracellular domain; also called CTLA4-hFc; CTLA4-Fc; not shown: human Fc gamma 1

[6] = target: T3, HuCTLA4-HuIgG1 (fusion protein of the …); assay: competition ELISA, CTLA4-hFc in solution; blocked ligand coated B7-1-muFc
Protocol: In order to determine B7-1 competition efficiency of CTLA4 binding Nanobodies, the purified clones were tested in an ELISA competition assay setup.

IC50 (read off the curve) [1]: ~90 nM
EC50 (read off the curve) [2]: ~2 ng/well
IC50 (read off the curve) [3]: ~2 ng/well
IC50 (read off the curve) [4]: ~3 ng/well
B1: 65C2 (VHH)
VHH: EVQLVESGGGLVQAGGSLRLSCAASGLTFSNYVMGWFRQAPGKEREFVGTISWDGSDTYYTHSVKGRFTISRDNAKNVVNLQMNSLKPEDTAVYYCAADYRPGGLLSLGKNEYDYWGQGTQVTVSS
notes: Nanobody against CD28

binding result [5]: binds
B2: 66B5 (VHH)
VHH: EVQLVESGGGLVQPGESLRLSCAASKSIFSISVMAWYRQAPGKQRELVARITPGGNTNYVDSVQGRFTISRDNAKNTVYLQMNSLKPEDTAVYYCNAQGSLLLAKYDYYGQGTQVTVSS
notes: Nanobody against CTLA4

IC50 (read off the curve) [6]: ~200 nM
B3: 65D10 (VHH)
VHH: EVQLVESGGGLVQAGGSLRLSCAASGRTSSTATVGWFRQAPGKEREFVAVINWRSGFTYYADSVKGRFTISREYAKNTVYLQMDSLKPEDTAVYSCAADLGGRTLYGGIHYSPEEYAYWGQGTQVTVSS
notes: Nanobody against CTLA4; also called 65D10 (4-4)

IC50 (read off the curve) [1]: ~100 nM
EC50 (read off the curve) [2]: ~20 ng/well
IC50 (read off the curve) [3]: ~7 ng/well
IC50 (read off the curve) [4]: ~10 ng/well
B4: 65C4 (VHH)
VHH: EVQLVESGGGLVQAGGSLRLSCKAAGRTFSSYAMGWFRQAPGKEREFVASIEWDGGGAYYEEAVKGRFTISRDNTKNTVYLQMDSLRPEDTAVYYCAASRWRTALTNYYDVADWGQGTQVTVSS
notes: Nanobody against CD28
